Biological target: Antibody 6 (Eu3+ cryptate labelled, Example 5)
Assay: HTRF competition: unlabelled test protein (maximum 100 nM) against biotin labelled human IL-1R1/Fc binding to cryptate labelled antibody

Antibody 6 (Eu3+ cryptate labelled, Example 5), sequence (VH, as listed by the source, chain 1 of 2): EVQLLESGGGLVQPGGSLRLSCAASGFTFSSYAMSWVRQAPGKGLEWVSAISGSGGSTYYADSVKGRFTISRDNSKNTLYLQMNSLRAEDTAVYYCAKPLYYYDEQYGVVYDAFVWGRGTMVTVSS
Antibody 6 (Eu3+ cryptate labelled, Example 5), sequence (VL, as listed by the source, chain 2 of 2): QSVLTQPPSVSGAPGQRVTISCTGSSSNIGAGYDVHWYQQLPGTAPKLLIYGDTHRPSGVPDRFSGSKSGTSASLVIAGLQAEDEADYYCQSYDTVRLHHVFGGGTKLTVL

B1: MoIL-1R1 (mouse IL-1R1 extracellular domain Fc fusion) (Fc fusion, UniProt P13504 20-338, looked up, not shown: a dimerising Fc or GST)
chain: LEIDVCTEYPNQIVLFLSVNEIDIRKCPLTPNKMHGDTIIWYKNDSKTPISADRDSRIHQQNEHLWFVPAKVEDSGYYYCIVRNSTYCLKTKVTVTVLENDPGLCYSTQATFPQRLHIAGDGSLVCPYVSYFKDENNELPEVQWYKNCKPLLLDNVSFFGVKDKLLVRNVAEEHRGDYICRMSYTFRGKQYPVTRVIQFITIDENKRDRPVILSPRNETIEADPGSMIQLICNVTGQFSDLVYWKWNGSEIEWNDPFLAEDYQFVEHPSTKRKYTLITTLNISEVKSQFYRYPFICVVKNTNIFESAHVQLIYPVPDFK
Binder B1 has a percentage inhibition at the highest concentration of chimera of 66%.
